{"source": "paper PMC3970736", "about": "“Peptide transporter isoforms are discriminated by the fluorophore‐conjugated dipeptides β‐Ala‐ and d‐Ala‐Lys‐N‐7‐amino‐4‐methylcoumarin‐3‐acetic acid” (Physiological Reports, 2013)", "proteins": {"B1": {"name": "rPEPT2 (Oryctolagus cuniculus) (protein)", "chain": "MNPFQQNESKETLFSPVSTEETPPRLSSPAKKTPPKICGSNYPLSIAFIVVNEFCERFSYYGMKAVLTLYFLYFLHWNEDTSTSVYHAFSSLCYFTPILGAAIADSWLGKFKTIIYLSLVNVLGHVIKSLSAFPILGGKVVHTVLSLVGLCLIALGTGGIKPCVAAFGGDQFEEKHAEERTRYFSGFYLAINAGSLISTFITPMLRGDVQCFGEDCYALAFGVPGLLMVIALVVFAMGSKMYKKPPPEGNIVAQVVKCIWFAISNRFKNRSEDIPKRQHWLDWAAEKYPKQLIMDVKTLTRVLFLYIPLPMFWALLDQQGSRWTLQATKMNGNLGFFVLQPDQMQVLNPLLVLIFIPLFDLVIYRLISKCGINFTSLRKMAVGMVLACLAFAAAATVEIKINEMAPPQPGSQEILLQVLNLADDEVKLTVLGNNNNSLLADSIKSFQKTPHYSKIHLNTKSQDFYFHLKYHNLSIYTEHSVEERNWYSLIIREDGKSISSIMVKDMENETTYGMTAIRFINTLQENVNISLGTDISLNVGENYGVSAYRTVQRGEYPAVHCKTEDKDFSLNLGLLDFGASYLFVITNSTKQGLQAWKMEDIPANKVSIAWQLPQYALVTAGEVMFSVTGLEFSYSQAPSSMKSVLQAAWLLTVAIGNIIVLVVAQFSGLVQWAEFVLFSCLLLVVCLIFSIMGYYYIPIKSEDIQGPEDKQIPHMQGNMINLETKKTKL", "notes": "full-length (729 residues) cRNA expressed in Xenopus laevis oocytes"}, "B2": {"name": "cePEPT1 (Caenorhabditis elegans) (protein)", "chain": "MGYSESRSESVSSKGKTSYGHELETVPLPEKKIYTTWPDMIRHWPKTTLCIVSNEFCERFSYYGMRTVLTFYLLNVLKFTDSQSTIFFNGFTVLCYTTPLLGSIVADGYIGKFWTIFSVSILYAIGQVVLALASTKNFQSSVHPWMDLSGLLIIAFGTGGIKPCVSAFGGDQFELGQERMLSLFFSMFYFSINAGSMISTFISPIFRSQPCLGQDSCYPMAFGIPAILMIVATLVFMGGSFWYKKNPPKDNVFGEVSRLMFRAVGNKMKSGSTPKEHWLLHYLTTHDCALDAKCLELQAEKRNKNLCQKKKFIDDVRSLLRVLVMFLPVPMFWALYDQQGSVWLIQAIQMDCRLSDTLLLLPDQMQTLNAVLILLFIPLFQVIIYPVAAKCVRLTPLRKMVTGGLLASLAFLITGFVQLQVNTTLPTLPEEGEASISFWNQFETDCTITVMSGIHKRVLPHDKYLHEDKKNKSGIYNLFTTKSPAKGNGDWTLTYDLSYDGACGDTSKLEKTVKVTAKSKKIIYVGVGSFGYYQNTANTDKPTDGTGEFSMGIVTVFNSSYGGNFAMCRQNTSDFDVNHPCNPRHPADFYFWETDYNSHTDDRDQNATITGSLSSQPAVTYKQKSVKPGYWQLYYLLNTPKDVDRQTYNKTATLVAPTNYGFHRVKQGGVFIYALTGTYENPKIHELQIVQSNSVSILWQIPQIVVITAAEILFSITGYEFAYSQSAPSMKALVQALWLLTTAAGDSIIVVITILNLFENMAVEFFVYAAAMFVVIAIFALLSIFYYTYNYYTTDEEDGEIGVDDEEEIEDHNPRYSIDNKGFHPDEKDTFDMHF", "notes": "full-length cRNA expressed in Xenopus laevis oocytes"}, "B3": {"name": "zfPEPT2 (Danio rerio) (protein)", "chain": "MGKMKDKDVDAEKYEKAQRSPKLCGTNYPVSIAFIVVNEFCERFSYYGMKAVLTLYFMNYLHWDKNLSTAIYHAFSGLCYFTPLLGALIADSWLGKFKTIIYLSIVYVIGHVVKSVGAIPDVGDSTVHIALSMVGLGLIALGTGGIKPCVAAFGGDQFDEDNIDERRKFFSIFYMSINAGSVLSTIITPILRGDVQCFGGDCYALAFGVPAALMVIALVVFISGSGLYKKSPPEGNVLVRVCKCIGFAISNRWTNSKKSPKRSHWLDWAEEKYSKRLIQEIKMVCRVLVLYIPLPMFWALFDQQGSRWTLQATRMNMDFGGGFIIKPDQMQMLNALLILVFIPIFDMGIYPLVGLCRIKLTPLKKMATGMILAALAFCAATAVEVYVIKTVVEPPPAKESLVQVYNLMDSDVTVQFPAHNVFSEPLKPYEEPSGYSSLPLTGESQLQNVVVSHNGMNYQCRLTFTERMAYSLLLHPTAQHNGSVCNLVKDHITKSETGAAYIRFINTHTENINVTVGTEEVHASANYGISRNISVPRGEYNKAVCVTDTKEYEINLGLLDFGAFYTVILSEAGNNLAVKKMEDIQANNIHIGWQIPQYVFLTAGEVMFSITGLEFSYSQAPASMKSVLQAGWLMTVAFGNVIVLIVAEGAGMEQWVEFLLFAALLVAVSIIFSIMAYFYTYVDPDQLDKLFKEDGDGGKVESSKKDELSLGDMPKQTKM", "notes": "as for B2"}}, "assay_in_all_cases": "two-electrode voltage clamp, Xenopus oocytes, Michaelis-Menten fit of transport current", "key": {"[1]": {"substrate": "Cc1c(CC(=O)NCCCC[C@H](NC(=O)CCN)C(=O)O)c(=O)oc2cc(N)ccc12", "assay_type": "cell-based, Oryctolagus cuniculus", "conditions": "pH 6.5, -160 mV, 0.05-2 mmol/L range, apparent transport affinity", "description": "(§1) two-electrode voltage clamp, Xenopus oocytes, Michaelis-Menten fit of transport current on rPEPT2"}, "[2]": {"substrate": "NCC(=O)N[C@@H](CCC(N)=O)C(=O)O", "assay_type": "cell-based, Oryctolagus cuniculus", "conditions": "pH 6.5, -160 mV, apparent transport affinity, GQ Km values 'in part published previously'", "description": "as §1"}, "[3]": {"substrate": "Cc1c(CC(=O)NCCCC[C@H](NC(=O)CCN)C(=O)O)c(=O)oc2cc(N)ccc12", "assay_type": "cell-based, Caenorhabditis elegans", "conditions": "pH 6.5, -60 mV, 0.5-4 mmol/L range, apparent transport affinity", "description": "(§2) two-electrode voltage clamp, Xenopus oocytes, Michaelis-Menten fit of transport current on cePEPT1"}, "[4]": {"substrate": "NCC(=O)N[C@@H](CCC(N)=O)C(=O)O", "assay_type": "cell-based, Caenorhabditis elegans", "conditions": "pH 6.5, -60 mV, apparent transport affinity, GQ Km values 'in part published previously'", "description": "as §2"}, "[5]": {"substrate": "Cc1c(CC(=O)NCCCC[C@H](NC(=O)CCN)C(=O)O)c(=O)oc2cc(N)ccc12", "assay_type": "cell-based, Danio rerio", "conditions": "pH 6.5, -160 mV, 0.05-2 mmol/L range, apparent transport affinity", "description": "(§3) two-electrode voltage clamp, Xenopus oocytes, Michaelis-Menten fit of transport current on zfPEPT2"}, "[6]": {"substrate": "NCC(=O)N[C@@H](CCC(N)=O)C(=O)O", "assay_type": "cell-based, Danio rerio", "conditions": "pH 6.5, -160 mV, apparent transport affinity, GQ Km values 'in part published previously'", "description": "as §3"}}}
{"protein": "B1", "values": [{"measurement": "Km", "setting": "[1]", "result": "290 ± 27", "unit": "µM"}, {"measurement": "Km", "setting": "[2]", "result": "150 ± 33", "unit": "µM"}]}
{"protein": "B2", "values": [{"measurement": "Km", "setting": "[3]", "result": "4640 ± 1670", "unit": "µM"}, {"measurement": "Km", "setting": "[4]", "result": "7450 ± 610", "unit": "µM"}]}
{"protein": "B3", "values": [{"measurement": "Km", "setting": "[5]", "result": "296 ± 26", "unit": "µM"}, {"measurement": "Km", "setting": "[6]", "result": "79 ± 12", "unit": "µM"}]}
